Measured values reported in article PMC3575483.

Target: Purified native (non-tagged) D. radiodurans DR1245 protein (D. radiodurans)
Assay: SEC; Sephacryl S-300 16/60 HR gel filtration column of purified native DR1245

stoichiometry N: 2
Substance: Purified native (non-tagged) D. radiodurans DR1245 protein (natural protein)
